The labels stand for the following.
B1: BMS3h-56-7 (other)
VH: EVQLLESGGGLVQPGGSLRLSCAASGFTFRDYEMWWVRQAPGKGLERVSAINPQGTRTYYADSVKGRFTISRDNSKNTLYLQMNSLRAEDTSVYHCAKPPFIFGDWGPGTLVTVSS
notes: dAb, single VH
B2: BMS3h-56-16 (other)
VH: B1 VH with K65M, S92A, H95Y, P99L, I102T, G104E, P108Q
notes: dAb, single VH
B3: BMS3h-56-30 (other)
VH: B1 VH with R30A, D31G, V37F, K65M, S92A, H95Y, P99L, I102T, G104D, P108Q
notes: dAb, single VH
B4: BMS3h-56-31 (other)
VH: EVQLLESGGGLVQPGGSLRLSCAASGFTFAGYEMWWFRQAPGKGLERVSAINPQGTRTYYADSVMGRFTISRDNSKNTLYLQMNSLRAEDTAVYYCAKLPFMFDDRGQGTLVTVSS
notes: dAb, single VH
B5: BMS3h-56-22 (other)
VH: B1 VH with E89D, S92A, A97T, P99L, G104E, D105Y, P108Q
notes: dAb, single VH
B6: BMS3h-56-18 (other)
VH: B1 VH with G44V, T78M, S92A, H95Y, P99L, I102T, G104E, P108Q
notes: dAb, single VH
B7: BMS3h-56-8 (other)
VH: B1 VH with L18R, S92A, H95Y, P99L, I102T, G104E, P108Q
notes: dAb, single VH
B8: BMS3h-56-24 (other)
VH: B1 VH with K65M, S92A, P99E, F101Y, I102S, F103Y, G104D, D105Y, P108Q
notes: dAb, single VH
B9: BMS3h-56-17 (other)
VH: B4 VH with T28S, A30R, G31D, F37Y, M65K, M102T, D104E, R106W
notes: dAb, single VH
B10: BMS3h-56-21 (other)
VH: B1 VH with S92A, H95Y, A97L, P99L, I102T, G104E, P108Q
notes: dAb, single VH
B11: BMS3h-56-23 (other)
VH: B4 VH with A30R, G31D, F37V, L99E, F101Y, M102S, D105S, R106W
notes: dAb, single VH
B12: BMS3h-56-20 (other)
VH: B1 VH with S92A, H95Y, A97T, P99L, I102T, G104E, P108Q
notes: dAb, single VH
B13: BMS3h-56-29 (other)
VH: B4 VH with M34L, F37V
notes: dAb, single VH
B14: BMS3h-56-25 (other)
VH: B4 VH with A30R, G31D, F37V, Q39R, M102T, R106W
notes: dAb, single VH
B15: BMS3h-56-26 (other)
VH: B4 VH with A30R, G31D, F37V, Q39R
notes: dAb, single VH
B16: BMS3h-56-28 (other)
VH: B4 VH with M34L, F37V, M102T, R106W
notes: dAb, single VH
B17: BMS3h-56-19 (other)
VH: B1 VH with S92A, P99L, I102T, G104E, P108Q
notes: dAb, single VH
B18: BMS3h-217-1 (other)
VL: NIQMTQSPSSLSASVGDRVTITCRASHFIGTLLTWYQHKPGKAPKLLITYGSLLQSGVPSRFSGSGSGTDFTLTISSLQPEDFATYYCGQGVLWPATFGQGTKVEIKR
notes: dAb, single VK
B19: BMS3h-217-7 (other)
VL: B18 VL with N1D, T31S, T34S
notes: dAb, single VK
B20: BMS3h-217-3 (other)
VL: B18 VL with N1D, S12T, T34S, H38Q, I48V, S77N, A96P, I106N, K107I
notes: dAb, single VK
B21: BMS3h-217-16 (other)
VL: B18 VL with N1D, T34S, H38Q, G41R, A96P
notes: dAb, single VK
B22: BMS3h-217-9 (other)
VL: B18 VL with N1D, T34S, L53M
notes: dAb, single VK
B23: BMS3h-217-2 (other)
VL: B18 VL with N1D, T34S, H38Q, G41R, Q79H, A96P
notes: dAb, single VK
B24: BMS3h-217-15 (other)
VL: B18 VL with N1D, S12Y, A25V, T34S, H38Q, T74S, A96P, R108Q
notes: dAb, single VK
B25: BMS3h-217-17 (other)
VL: B18 VL with N1D, M4I, T5I, T34S, H38Q, A96P
notes: dAb, single VK
B26: BMS3h-217-23 (other)
VL: B18 VL with N1D, T31S, T34S, H38V, K103T
notes: dAb, single VK
B27: BMS3h-217-8 (other)
VL: B18 VL with N1D, T34S
notes: dAb, single VK
B28: BMS3h-38-209 (other)
VH: EVQLLASGGGLVQPGGSLRLSCAASGFTFEEEEMIWVRQAPGKGLEWVSAISRLGWSTYYADSVKGRFTISRDNSKNTLYLQMNSLRAEDTAVYYCGKEPFRYDYWGQGTLVTVSS
notes: domain antibody (dAb): single human VH domain
B29: BMS3h-38-217 (other)
VH: B28 VH with L54R, W56Y
notes: as for B28
B30: BMS3h-38-215 (other)
VH: B28 VH with R53G
notes: as for B28
B31: BMS3h-38-237 (other)
VH: B28 VH with L54G
notes: as for B28
B32: BMS3h-38-218 (other)
VH: B28 VH with L54H
notes: as for B28
B33: BMS3h-38-226 (other)
VH: B28 VH with R53G, L54S, W56G, F101L, R102Y
notes: as for B28
B34: BMS3h-38-223 (other)
VH: B28 VH with R53G, L54S, W56G, R102M
notes: as for B28
B35: BMS3h-38-224 (other)
VH: B28 VH with R53G, L54S, W56G, R102P
notes: as for B28
B36: BMS3h-38-231 (other)
VH: B28 VH with T28P, L54Q
notes: as for B28
B37: BMS3h-38-235 (other)
VH: B28 VH with L54N, W56Y
notes: as for B28
B38: BMS3h-38-228 (other)
VH: B28 VH with L54N, W56F
notes: as for B28
B39: BMS3h-38-225 (other)
VH: B28 VH with R53G, L54S, W56G, S57G
notes: as for B28
B40: BMS3h-193-2506 (other)
VL: DIQMTQSPSSLSASVGDRVTITCRASQQIGRRLNWYQQKPGKAPRLLIYLATRLQSGVPSRFSGSGSGTDFTLTISSLQPEDFATYYCHQYESPPLTFGQGTKVEIKR
notes: domain antibody (dAb): single human V kappa domain
B41: BMS3h-193-2502 (other)
VL: B40 VL with Q27F, Q28P, G30D
notes: as for B40
B42: BMS3h-193-2512 (other)
VL: B40 VL with Q27E, Q28V
notes: as for B40
B43: BMS3h-193-2503 (other)
VL: B40 VL with Q27S, Q28T
notes: as for B40
B44: BMS3h-193-2507 (other)
VL: B40 VL with Q28P, G30A
notes: as for B40
B45: BMS3h-193-2514 (other)
VL: B40 VL with Q27T, Q28S, G30A
notes: as for B40
B46: BMS3h-193-2513 (other)
VL: B40 VL with Q27E, Q28A
notes: as for B40
B47: BMS3h-193-2510 (other)
VL: B40 VL with Q28S
notes: as for B40
B48: BMS3h-193-2501 (other)
VL: B40 VL with Q28T, G30E, Y91F, S93H
notes: as for B40
B49: BMS3h-193-2505 (other)
VL: B40 VL with Q27E, Q28R
notes: as for B40
B50: BMS3h-193-2515 (other)
VL: B40 VL with Q27L, Q28N
notes: as for B40
B51: BMS3h-193-2504 (other)
VL: B40 VL with Q27S
notes: as for B40
B52: BMS3h-193-2511 (other)
VL: B40 VL with Q28N, R31T
notes: as for B40
B53: BMS3h-193-2516 (other)
VL: B40 VL with Q28T, G30E, A51S, T52S, R53K
notes: as for B40

Where a chain is given by its changes, count along the chain named. Where “and” joins values, the source holds several entries; their conditions need not be identical. Equal entries are not always repeated.

The target of the first assay is T1, human CD40 (BMS, CY24FEB06-01) (human, UniProt P25942 21-193).
T1 construct: Soluble reagent of the bead and ELISA RBA; It is detected with an anti-human IgG (Fc) mAb, so it may be a CD40-Ig fusion
In words: ELISA RBA, competition with IZ-CD40L.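 Further: Neutravidin-coated 384-well plate, dAb–human CD40 complex bound for 2 h at room temperature, absorbance read at 450 nm after HCl stop.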 On the technique in general: ELISA stands for enzyme-linked immunosorbent assay.
T1 sequence (P25942 21-193 limits assumed): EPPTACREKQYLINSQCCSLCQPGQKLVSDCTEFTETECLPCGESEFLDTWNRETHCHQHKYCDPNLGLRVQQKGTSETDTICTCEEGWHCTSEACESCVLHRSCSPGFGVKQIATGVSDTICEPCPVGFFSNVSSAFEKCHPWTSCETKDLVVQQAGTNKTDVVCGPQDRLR
Procedure: (§1) Clear walled High Bind, 384-well plates (Corning, UK) were coated with 25 μl of 1 μg/ml Neutravidin in 0.2 M carbonate-bicarbonate buffer, pH 9.4 overnight at 4° C. The following day, assay plates were washed with 0.1% (v/v) Tween PBS buffer, blocked with 1% (w/v) BSA in PBS for 1 hour at room temperature and washed again. […] Following washing of the assay plate, the dAb:human CD40 complex was incubated in the assay plate at room temperature for 2 hours with gentle agitation. […] Absorbance signal was measured using a SpectraMax® M5e plate reader (Molecular Devices) at 450 nm following neutralization with 1M HCl solution.
Regarding B1, it took 0.0055 µM to reach a half-maximal effect (EC50). In the case of B2, it took 0.007 µM to reach a half-maximal effect (EC50).

Consider B3, for which the midpoint of the response, the EC50, lay at 0.0242 µM. On the same count and under the same terms, the same measure for B4: 0.061 µM; for B5: 0.0065 µM; for B6: 0.0065 µM.

B7: a half-maximal response (EC50) required 0.0062 µM. On to B8, for which the EC50 (usually the concentration that produces a half-maximal response) turned out to be 0.0117 µM.

Consider B9, for which a half-maximal effect (EC50) was put at 0.066 µM. Same read-out and setting: the same measure for B10: 0.0065 µM and 0.0062 µM; for B11: 0.0245 µM. Same read-out and setting: the same measure for B12: 0.0068 µM. In the case of B13, the EC50 was determined as 0.0097 µM. Regarding B14, the half-maximal effective concentration (EC50) came out at 0.0055 µM. Turning to B15, the response was half-maximal at 0.005 µM (EC50). Molecule B16 displayed an EC50 of 0.0089 µM. As to B17, the EC50 was 0.0055 µM and 0.0051 µM. B18: the EC50 came out at 0.023 µM. Still for that read-out and setting: the same measure for B19: 0.039 µM.

In turn, B20 displayed an EC50 of 0.032 µM.

B21 showed an EC50 of 0.009 µM.

Regarding B22, the EC50 was 0.053 µM. Same read-out and setting: the same measure for B23: 0.078 µM; for B24: 0.021 µM.

B25 gave an EC50 of 0.06 µM. On the same count and under the same terms, the same measure for B26: 0.016 µM. In turn, B27 showed an EC50 of 0.006 µM.

A further assay addresses T2, human CD40 (BMS, CY24FEB06-01) (human, UniProt P25942 21-193).
T2 construct: Soluble human CD40 reagent of the ELISA RBA
In words: ELISA RBA, competition with IZ-CD40L for soluble human CD40.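 Further: Neutravidin-coated 384-well plates, dAb–human CD40 complex incubated 2 h at room temperature, read-out as absorbance at 450 nm.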
T2 sequence (P25942 21-193 limits assumed): as above
Procedure: as §1
B28: the midpoint of the response, the EC50, lay at 0.0102 µM. Still for that read-out and setting: the same measure for B29: 0.0018 µM and 0.0022 µM. Turning to B30, the EC50 is 0.0023 µM and 0.0036 µM.

In the case of B31, a half-maximal response (EC50) required 0.002 µM. As to B32, it took 0.003 µM to reach a half-maximal effect (EC50). Same read-out and setting: under B33 stands 0.0181 µM; under B34, 0.0057 µM; under B35, 0.0063 µM. On the same count and under the same terms, the same measure for B36: 0.0044 µM; for B37: 0.0015 µM. On the same count and under the same terms, under B38 stands 0.004 µM; under B39, 0.0088 µM; under B40, 0.18 µM. The molecule B41 returned an EC50 of 0.17 µM. Still for that read-out and setting: the same measure for B42: 0.6 µM; for B43: 3 µM. Same read-out and setting: the same measure for B44: 0.16 µM.

Take B45: the EC50 was 0.525 µM. Still for that read-out and setting: the same measure for B46: 0.13 µM; for B47: 0.17 µM. On the same count and under the same terms, under B48 stands 0.114 µM; under B49, 0.5 µM.

In turn, B50 registered an EC50 of 0.1 µM.

In turn, B51 returned an EC50 of 0.14 µM. Consider B52, for which the 50% effective concentration (EC50) is 0.27 µM. Still for that read-out and setting: the same measure for B53: 0.1 µM.

The record behind these values is patent US20200199244A1 (published 2020).
